Laboratory results published in patent US20260356969 (published 2026).
Changes are numbered by the printed parent chain. Like-named read-outs stand apart in the source and are kept apart here. Each block holds one binder with its values, some of them ahead of it.

What was measured:
[1] = molecular target: 21G585 CD26 fragment 29-182 (human); test: FACS
[2] = molecular target: 21G583 CD26 fragment 29-300 (human); test: FACS
[3] = molecular target: 21G584 CD26 fragment 29-237 (human); test: FACS
[4] = molecular target: 23G645 CD26 fragment 498-766 (human); test: FACS
Sequence of 23G645 CD26 fragment 498-766 (human) (chain, as listed by the source): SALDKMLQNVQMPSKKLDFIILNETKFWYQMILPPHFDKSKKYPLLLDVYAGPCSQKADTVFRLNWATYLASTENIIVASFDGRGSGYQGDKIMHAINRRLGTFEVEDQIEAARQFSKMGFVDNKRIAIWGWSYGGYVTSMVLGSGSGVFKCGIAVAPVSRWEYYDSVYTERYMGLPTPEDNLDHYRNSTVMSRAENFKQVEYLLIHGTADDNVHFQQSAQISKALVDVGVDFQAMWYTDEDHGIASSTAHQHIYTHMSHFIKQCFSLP

CD26 [5] = molecular target: T1, CD26 (human, UniProt P27487); test: BLI
T1 sequence (P27487 29-766): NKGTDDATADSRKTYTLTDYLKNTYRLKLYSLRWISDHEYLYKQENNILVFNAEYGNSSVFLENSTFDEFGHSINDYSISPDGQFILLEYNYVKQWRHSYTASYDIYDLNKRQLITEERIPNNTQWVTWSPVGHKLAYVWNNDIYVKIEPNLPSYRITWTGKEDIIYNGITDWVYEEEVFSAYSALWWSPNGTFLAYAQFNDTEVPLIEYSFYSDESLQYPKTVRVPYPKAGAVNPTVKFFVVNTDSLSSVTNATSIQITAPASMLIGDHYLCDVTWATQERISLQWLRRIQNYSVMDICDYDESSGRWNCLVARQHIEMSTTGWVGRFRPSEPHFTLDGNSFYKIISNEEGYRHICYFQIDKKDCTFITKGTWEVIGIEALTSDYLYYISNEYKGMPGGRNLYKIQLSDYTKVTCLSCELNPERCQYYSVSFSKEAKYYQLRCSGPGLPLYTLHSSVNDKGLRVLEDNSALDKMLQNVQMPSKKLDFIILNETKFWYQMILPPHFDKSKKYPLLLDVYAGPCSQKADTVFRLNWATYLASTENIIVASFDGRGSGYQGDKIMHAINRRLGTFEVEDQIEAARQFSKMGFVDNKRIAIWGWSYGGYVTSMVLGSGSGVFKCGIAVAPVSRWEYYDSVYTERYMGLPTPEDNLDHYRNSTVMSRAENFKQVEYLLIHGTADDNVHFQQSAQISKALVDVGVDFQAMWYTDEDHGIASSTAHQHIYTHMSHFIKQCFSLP

CD26 [6] = molecular target: T1, CD26; test: BLI; remark: listed apart in the source

Sequence of 21G584 CD26 fragment 29-237 (human) (chain, as listed by the source): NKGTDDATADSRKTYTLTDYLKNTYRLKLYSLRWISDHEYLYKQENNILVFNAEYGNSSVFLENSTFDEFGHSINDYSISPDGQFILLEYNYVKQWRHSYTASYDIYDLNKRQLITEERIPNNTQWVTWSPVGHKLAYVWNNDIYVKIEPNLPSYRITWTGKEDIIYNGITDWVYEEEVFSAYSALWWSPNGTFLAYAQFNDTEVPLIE
Sequence of 21G585 CD26 fragment 29-182 (human) (chain, as listed by the source): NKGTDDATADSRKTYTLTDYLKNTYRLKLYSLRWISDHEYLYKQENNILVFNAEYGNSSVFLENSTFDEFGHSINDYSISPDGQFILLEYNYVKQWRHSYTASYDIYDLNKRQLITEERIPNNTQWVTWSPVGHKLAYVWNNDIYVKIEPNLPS
Sequence of 21G583 CD26 fragment 29-300 (human) (chain, as listed by the source): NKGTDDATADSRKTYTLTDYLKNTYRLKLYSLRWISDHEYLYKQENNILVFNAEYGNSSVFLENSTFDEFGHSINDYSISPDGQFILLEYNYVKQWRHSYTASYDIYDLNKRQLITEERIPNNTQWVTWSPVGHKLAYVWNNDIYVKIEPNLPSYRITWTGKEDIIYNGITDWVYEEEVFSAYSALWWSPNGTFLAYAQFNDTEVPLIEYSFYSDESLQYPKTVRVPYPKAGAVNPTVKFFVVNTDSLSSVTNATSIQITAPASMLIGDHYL

binding result [1]: no binding
binding result [2]: no binding
binding result [3]: no binding
binding result [4]: no binding
B1: 21G428-429 (antibody, V domains shown)
VH: EVQLVQSGAELVKPGASVKLSCAASGFNIKDTYIYWVRQAPGQGLEWVGRIEPMNGNTKYDPKFQGRFTMTANTSKNTAYLQLSSLRSEDTAVYYCSRGGWLLLYVMDYWGQGTLVTVSS
VL: DIVMTQSPSSLSVTPGERVSISCRSDKSLLHSNGNTYLYWFLQKPGQSPQVLIYRMSNLASGVPDRFSGSGSGTDFTLTISRVEAEDVGVYYCFQQLEYPYTFGQGTKLEIKR

Kd (CD26 [5]): < 0.001 nM
B2: 19G293 (CD26 arm) (antibody, V domains shown)
VH: B1 VH with E1Q, A23K, V48I, F68V, K76I, Q82E
VL: DIVMTQSPLSLSVTPGEPASISCRSDKSLLHSNGNTYLYWFLQKPGQSPQVLIYRMSNLASGVPDRFSGSGSGTDFTLKISRVEAEDVGVYYCFQQLEYPYTFGQGTKLEIK

Kd (CD26 [5]): 0.914 nM
B3: 19G294 (CD26 arm) (antibody, V domains shown)
VH: B1 VH
VL: B2 VL with L9S, P18R, A19V, K79T

Kd (CD26 [5]): 0.352 nM
B4: 21G587 (CD26 arm) (antibody, V domains shown)
VH: B1 VH
VL: B2 VL with L9S, P18R, A19V, K79T

Kd (CD26 [6]): 39.3 nM
B5: 17G105 (CD26 arm) (antibody)
chain: DIVLTQSPASLAVSLGQRATISCRASESVEYYGTSLMQWYQQKPGQPPKLLIYTASNVESGVPVRFSGSGSGTDFSLNIHPVEEDDIAMYFCQQSRKVPYTFGGGTKLEIKGGGGSGGGGSGGGGSQVQLQQSGPELMKPGASVKISCKATGYSFSGFWIEWVKQRPGHGLEWIGEILPGSGASNYHENFKGRATITADTSANTAYMQLRSLTSEDSAVYYCARERYYGSKYFDVWGAGTTVTVSS

Kd (CD26 [5]): 1.18 nM
B6: 17G29 (CD26 arm, YS110) (antibody, V domains shown)
VH: EVQLVESGAGVKQPGGTLRLTCTASGFSLTTYGVHWVRQAPGKGLEWVGVIWGDGRTDYDAAFMSRVTISKDTSKSTVYLQMNSLRAEDTAVYYCMRNRHDWFDYWGQGTTVTVSS
VL: DILLTQSPSSLSATPGERATITCRASQGIRNNLNWYQQKPGQAPRLLIYYSSNLQSGVPSRFSGSGSGTDFTLTISRLQPEDVAAYYCQQSIKLPFTFGSGTKVEIK

Kd (CD26 [6]): 17.3 nM
B7: 17G61 (CD26 arm) (antibody)
chain: DIVMTQAAPSVSVTPGESVSISCRSDKSLLHSNGNTYLYWFLQRPGQSPQVLIYRMSNLASGVPDRFSGSGSGTGFTLRVSRVEAEDVGVYYCFQQLEYPYTFGGGTKLEIKGGGGSGGGGSGGGGSEVQLQQSGAELVKPGASVKLSCTASGFNIKDTYIYWVKQRPGQGLEWIGRIEPMNGNTKYDPKFQGKATMTANTSSNTAYLHLSSLASEDTAVYFCSRGGWLLLYVMDYWGQGTSVTVSS

Kd (CD26 [5]): < 0.001 nM
B8: 19G292 (CD26 arm) (antibody, V domains shown)
VH: QVQLLQSGAEVVKPGASVKISCKASGFNIKDTYIYWVKQPTGQGLEWIGRIEPMNGNTKYDPKFQGRFTMTANTSINTAYLQLSSLTSEDTAVYYCSRGGWLLLYVMDYWGQGTTVTVSS
VL: B2 VL with P8A, L9S, S12P, P18S, A19V, K44R, D75E, K79T, Q105P

Kd (CD26 [5]): 4.4 nM
B9: 19G297 (CD26 arm) (antibody, V domains shown)
VH: EVQLQESGPGLVKPSGTLSLTCAVSGDSITSGYWHWIRQAPGKGLEWVGYINYSGYTYYNPSLKSRFTISRDTSKNQYYLQLNSVTAEDTAVYYCTSERNWGAFAYWGQGTLVTVSS
VL: ENVLTQSPASLSASPGERVTITCRASSSVISTYLHWYQQKPGQAPKLWIYSTSNLASGVPARFSGSGSGTDYTLTISSVEPEDFATYYCQQFSGYPYTFGQGTKLEIK

Kd (CD26 [5]): 14.8 nM
B10: 19G296 (CD26 arm) (antibody, V domains shown)
VH: B9 VH with E1Q, G16E, A23T, A40P, V48I
VL: B9 VL with S10T, V19A, I21L, T22S, T86V
